Legend:
[1] = test system: GST-fused SP-3 peptide of NFAT1 (amino acids 264-295) with Ser>Ala substitutions in the serines phosphorylated in cells
[2] = test system: GST-fused peptide corresponding to the SP-3 motif (amino acids 264-295) of NFAT1, wild type

recombinant DYRK1A protein kinase (Upstate Biotechnology), bacterially expressed
in vitro kinase assay with recombinant kinase, phosphorylation of GST-peptide [1]: neither kinase phosphorylated an SP-3 peptide with Ser>Ala substitutions in the specific serine residues known to be phosphorylated in cells
in vitro kinase assay with recombinant kinase, phosphorylation of GST-peptide [2]: DYRK2 and DYRK1A both displayed strong and selective kinase activity towards the SP-3 motif of NFAT1

From patent US20090178146
